Patent publication US20200370085A1
pKd: −log10 of the molar value.

molecular target: VEGF (UniProt P15692); assay: solution equilibrium titration (SET) ELISA, crude IVT product 1:400, monovalent fit
UniProt P15692, sequence (P15692 other isoform, or with tags, fused parts or gaps limits assumed): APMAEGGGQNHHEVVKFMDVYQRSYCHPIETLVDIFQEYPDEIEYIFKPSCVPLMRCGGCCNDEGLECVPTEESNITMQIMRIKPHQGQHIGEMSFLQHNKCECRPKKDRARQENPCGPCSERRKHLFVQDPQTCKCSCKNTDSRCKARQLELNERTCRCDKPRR

Row | pKd | Substance
1 | 11.39 | [N31H] Avastin scFv
2 | 10.96 | [H101Y] Avastin scFv
3 | 11.05 | [S105T] Avastin scFv
